Patent US20110011742, “METHOD FOR THE PURIFICATION OF BIOLOGICAL MACROMOLECULES” (published 2011)

B1: YZ-7 (NF-kb probe) (dsDNA)
DNA 1: TCCTAGCTTCAGAGGGGACTTTCCGAGAGGACCTGAAGAAATGGTTTTGAATCAT
DNA 2: CCTCTCGGAAAGTCCCCTCTGAAGCTAGGA
B2: YZ-11 (ER-alpha probe) (dsDNA)
DNA 1: CCTGCCAGGTCGCGCTGCCCTCCTTCTACCATGCCTTAGGAGAATTGTTTTGTTT
DNA 2: GGTAGAAGGAGGGCAGCGCGACCTGGCAGG

Columns and labels:
Sp1 [1] = biological target: T1, Sp1 (UniProt P08047 P08047:2-785); experiment: probe mixture, gel-separated complex hybridised to microarray; signal 0 at the tag-complementary spot Y-14 (Y-7t also 0); room temperature 30 min; details: tags: Promega recombinant; label: 5'-Cy3 on YZ-7f (microarray); partially double-stranded, 3' single-strand tag on YZ-7f
Procedure: (§1) The Sp1 protein was mixed with a group of Cy3 labeled probes (YZ-7, YZ-9 and YZ-11) at room temperature for 30 minutes and then the protein/DNA complex was separated on the polyacrylamide column using the separation method described in Example 1. The collected protein/DNA complex was concentrated, the buffer changed to 5×SSC, 0.1% SDS, and the DNA hybridized to a microarray slide containing oligonucleotide DNA sequences shown in Table 2. Small amounts of YZ-2 and YZ-4 were added (shown in Table 3 and complementary to the sequences of YZ-1 and YZ-3). These sequences, shown in Table 3, serve as a positive control and reference signal. Only the Sp1 and control probes yielded positive signals (see Table 4). […] The microarray results (shown in Table 4) was consistent with the result from the gel shift assay.

Sp1 [2] = biological target: T1, Sp1; experiment: probe mixture, gel-separated complex hybridised to microarray; signal 0 at Y-11t; room temperature 30 min; details: tags: Promega recombinant; label: IRDye 700 (gel) or 5'-Cy3 on YZ-11f (microarray); partially double-stranded, 3' single-strand tag on YZ-11f
Procedure: as §1

T1 sequence (P08047 2-785, one chain of several): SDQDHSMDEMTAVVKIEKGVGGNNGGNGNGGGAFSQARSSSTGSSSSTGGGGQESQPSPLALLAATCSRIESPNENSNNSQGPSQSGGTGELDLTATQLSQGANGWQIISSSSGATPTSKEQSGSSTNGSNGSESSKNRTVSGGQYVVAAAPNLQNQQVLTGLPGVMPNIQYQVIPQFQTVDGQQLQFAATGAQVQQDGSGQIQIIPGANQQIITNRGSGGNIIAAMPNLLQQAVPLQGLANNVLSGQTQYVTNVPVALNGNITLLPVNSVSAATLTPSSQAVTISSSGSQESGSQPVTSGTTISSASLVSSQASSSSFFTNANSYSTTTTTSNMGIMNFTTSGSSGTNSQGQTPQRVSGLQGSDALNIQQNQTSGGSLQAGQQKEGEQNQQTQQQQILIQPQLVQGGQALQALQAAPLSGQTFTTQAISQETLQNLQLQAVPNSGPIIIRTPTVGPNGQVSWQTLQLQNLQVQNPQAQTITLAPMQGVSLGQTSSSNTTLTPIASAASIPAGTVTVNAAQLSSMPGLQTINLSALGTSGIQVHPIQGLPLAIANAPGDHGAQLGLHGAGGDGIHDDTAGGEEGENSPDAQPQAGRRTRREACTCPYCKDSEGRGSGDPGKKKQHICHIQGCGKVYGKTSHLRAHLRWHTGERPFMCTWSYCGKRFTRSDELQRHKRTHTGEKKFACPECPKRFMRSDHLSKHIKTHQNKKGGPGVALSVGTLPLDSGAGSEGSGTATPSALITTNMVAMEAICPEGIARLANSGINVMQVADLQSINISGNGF

| Binder | binding result (Sp1 [1]) | binding result (Sp1 [2]) |
| --- | --- | --- |
| B1 | no binding |  |
| B2 |  | no binding |
